Data as given in patent US20250223366A1, “MONOCLONAL ANTIBODIES AND BISPECIFIC ANTIBODY AGAINST C-MET” (BIOTHEUS INC., priority 2022, published 2025).

Legend:
human c-MET protein = human c-MET protein (Homo sapiens, UniProt P08581); assay: ForteBio affinity assay, human c-Met; assay type: binding
Protocol: (§1) After the antibodies were prepared, the ForteBio affinity assay was performed according to the reported method (Estep, P et al., Determination of antibody-antigen affinity and epitope binding based on high-throughput methods. MAbs, 2013.5(2): p. 270-8).

monkey c-MET protein = assay: ForteBio affinity assay, monkey c-Met; assay type: binding
Protocol: as §1

[1] = system: HGF-c-MET signaling pathway; assay: Blocking of HGF-c-MET signaling pathway in Gefitinib-treated HCC827 cells (single antibody concentration); assay type: cell-based, human; details: 3 days, Cell titer glo, FIG. 2
Protocol: HCC827 cells were human non-small cell lung cancer cells (purchased from the Cell Bank of the Chinese Academy of Sciences), which highly express epidermal growth factor receptor EGFR (exon 19 deletion) and c-Met receptor. The treatment with small molecule tyrosine kinase inhibitor (TKI) Gefitinib (gefitinib, an epidermal growth factor receptor tyrosine kinase inhibitor) would induce apoptosis in HCC827 cells. If HGF was added at the same time under such conditions, the c-Met pathway would be activated to induce HCC827 to produce resistance to Gefitinib, thereby inhibiting apoptosis.
The cell density of the HCC827 cells after the expanded culture was adjusted to 2×10^4 cells/ml, added to a 96-well cell culture plate at 100 μl/well, and cultured overnight for later use. The antibody to be tested was diluted to 1000 nM with 1640 medium, HGF was diluted to 800 ng/mL, and Gefitinib was diluted to 8 μM. According to the experimental requirements, the diluted antibody at 50 μl/well, HGF at 25 μl/well, and Gefitinib at 25 μl/well were added to the 96-well plate with HCC827 cells, and supplemented with 1640 medium to reach a total volume of 200 μl/well. After culturing for 3 days at 37° C. and 5% carbon dioxide, 100 μl of the medium was removed, and then Cell titer glo (purchased from Promega) was added at 100 μl/well, and the chemiluminescent signal was collected with an microplate reader.

A375/H1975/HCC827 cells = assay: ADCC induction, CD16a-NFAT-Luc Jurkat reporter gene cells; assay type: cell-based, human; details: A375, H1975, HCC827 target cells, CD16a-NFAT-Luc Jurkat effector cells, 6 h, FIG. 9
From the text: A375 cells were human malignant melanoma cells and purchased from Addexbio, which were capable of expressing EGFR and c-Met receptors. H1975 cells were human lung adenocarcinoma cells and purchased from Addexbio, which were capable of highly expressing EGFR and c-Met receptors. HCC827 cells were human non-small cell lung cancer cells and purchased from the Cell Bank of the Chinese Academy of Sciences, which were capable of highly expressing EGFR and c-Met receptors. […]

[2] = system: H292 human lung cancer tumor cells; assay: Experimental Model 1: H292 tumor-bearing model; assay type: in vivo, CB-17 SCID mice; details: H292, Day 7: 10 mg/kg; Day 21: 2 mg/kg; last measured 29 days after inoculation
Protocol: In this experiment, CB-17 SCID mice were subcutaneously inoculated with H292 human lung cancer tumor cells to establish a tumor-bearing model and determine the anti-tumor effect of the anti-EGFRxc-Met bispecific antibody. Sufficient H292 cells were cultured and expanded in vitro, and the cells were collected after trypsin digestion. After washing with PBS for 3 times, the cells were counted and inoculated subcutaneously at the right abdomen of female 8-week-old CB-17 SCID mice (purchased from Beijing Weitong Lihua) at an amount of 3×10^6 cells/mouse. The subcutaneous tumor formation of tumor cells in the mice was observed daily, and the maximum width axis W and the maximum length axis L of the subcutaneous tumor on the right abdomen of each animal were measured with a vernier caliper, and the weight of each mouse was weighed with an electronic balance. The subcutaneous tumor volume on the right abdomen of each mouse was calculated according to the following formula: tumor volume T=1/2×W×W×L. The mice with too large and too small tumor volumes were eliminated, and the remained mice were divided into 4 groups according to the average tumor volume, with 6 mice in each group. […]
The tumor volume and weight of mice were measured 2 to 3 times a week. The weight and tumor volume of mice were measured for the last time 29 days after the tumor cell inoculation, and then the mice were euthanized.

human c-MET protein, sequence (P08581 25-1390): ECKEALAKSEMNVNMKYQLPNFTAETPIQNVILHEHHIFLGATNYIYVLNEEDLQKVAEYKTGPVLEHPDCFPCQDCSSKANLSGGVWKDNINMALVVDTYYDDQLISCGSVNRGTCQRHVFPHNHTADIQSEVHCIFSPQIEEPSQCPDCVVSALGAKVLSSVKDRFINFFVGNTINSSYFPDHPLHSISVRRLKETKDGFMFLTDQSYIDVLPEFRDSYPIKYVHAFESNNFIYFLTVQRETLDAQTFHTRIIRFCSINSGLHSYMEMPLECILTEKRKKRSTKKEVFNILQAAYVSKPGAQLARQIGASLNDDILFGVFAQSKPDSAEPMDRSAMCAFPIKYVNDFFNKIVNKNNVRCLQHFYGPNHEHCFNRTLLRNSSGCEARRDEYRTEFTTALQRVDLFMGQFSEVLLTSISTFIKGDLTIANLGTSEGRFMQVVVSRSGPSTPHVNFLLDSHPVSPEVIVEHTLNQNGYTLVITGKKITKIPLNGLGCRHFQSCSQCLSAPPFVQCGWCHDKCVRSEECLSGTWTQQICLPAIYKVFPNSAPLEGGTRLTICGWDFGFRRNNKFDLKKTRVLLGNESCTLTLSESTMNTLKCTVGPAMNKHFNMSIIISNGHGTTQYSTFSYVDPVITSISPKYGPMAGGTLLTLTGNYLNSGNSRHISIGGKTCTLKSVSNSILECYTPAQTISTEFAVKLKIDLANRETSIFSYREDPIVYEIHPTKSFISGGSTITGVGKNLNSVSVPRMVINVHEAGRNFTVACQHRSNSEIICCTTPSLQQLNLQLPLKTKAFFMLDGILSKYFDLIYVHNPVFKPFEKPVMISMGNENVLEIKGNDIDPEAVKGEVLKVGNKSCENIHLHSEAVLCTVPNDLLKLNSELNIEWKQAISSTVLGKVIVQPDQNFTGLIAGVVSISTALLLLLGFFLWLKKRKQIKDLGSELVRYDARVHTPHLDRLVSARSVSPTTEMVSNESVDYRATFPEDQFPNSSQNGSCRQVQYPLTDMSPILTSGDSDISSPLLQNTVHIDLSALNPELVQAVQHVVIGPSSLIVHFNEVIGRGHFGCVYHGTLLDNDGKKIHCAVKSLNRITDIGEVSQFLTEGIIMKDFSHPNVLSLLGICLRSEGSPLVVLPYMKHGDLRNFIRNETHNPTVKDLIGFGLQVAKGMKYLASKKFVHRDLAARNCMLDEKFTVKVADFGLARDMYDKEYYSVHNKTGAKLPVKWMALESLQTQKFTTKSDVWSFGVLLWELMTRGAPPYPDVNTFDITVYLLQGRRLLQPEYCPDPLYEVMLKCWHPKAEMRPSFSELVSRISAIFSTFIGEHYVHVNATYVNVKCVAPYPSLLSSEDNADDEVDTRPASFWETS

Row | Molecule | Koff (human c-MET protein) [s⁻¹] | Kon (human c-MET protein) [M⁻¹ s⁻¹] | Koff (monkey c-MET protein) [s⁻¹] | Kon (monkey c-MET protein) [M⁻¹ s⁻¹] | restoring the proliferation inhibitory effect of Gefitinib on HCC827 cells by blocking HGF-c-MET signaling [1] | ADCC effect (A375/H1975/HCC827 cells) | tumor (volume) inhibition rate (TGI) [2] [%]
1 | 136: anti-c-MET antibody from yeast display screening; VH SEQ ID NO: 9, VL SEQ ID NO: 11 (antibody, V domains shown) VH: EVQLQESGPGLVKPSETLSLTCTVSGGSVTSVNYYWKWIRQPPGKGLEWIGYISYSGNTNYNPSLKSRVTISVDTSKNQFSLKLSSVTAADTAVYYCVRAPYYYMDVWSKGTTVTVSS VL: DIVMTQSPSSVSASVGDRVTITCRASQGISSWLAWYQQKPGKAPKLLIYAVSSLQSGVPSRFSGSGSGTDFTLTISSLQPEDFATYFCQQANSFPLTFGGGTKVEIK | 6.71e-06 | 229000 | 0.000426 | 369000 | could restore the proliferation inhibitory effect of Gefitinib on HCC827 cells | – | –
2 | 187: anti-c-MET antibody from yeast display screening; VH SEQ ID NO: 13, VL SEQ ID NO: 15 (antibody, V domains shown) VH: ELQLQESGPGLVKPSETLSLTCTVSGGSISSSSYYWGWIRQSPGKGLEWIGSRYYSGNTYYNPSLKSRVTMSVDTSKNQFSLKLRSVTAADTAVYYCARQVYDYWRDWGQGALVTVSS VL: DIVMTQSPSSVSASVGDRVTITCRASQGISSWLAWYQQKPGKAPNLLIYAASNLPSGVPSRFSGSGSGTVFTLTISSLQPEDFATYYCQQSNSFPLTFGGGTKVEIK | 0.000369 | 220000 | 0.000947 | 324000 | could restore the proliferation inhibitory effect of Gefitinib on HCC827 cells | – | –
3 | Amivantamab analog Afu: control bispecific antibody obtained from the afucosylation cell line with gene knockout (antibody, chains of the INN, looked up, V domains shown, afucosylated, control bispecific antibody obtained from the afucosylation cell line with gene knockout) VH: QVQLVESGGGVVQPGRSLRLSCAASGFTFSTYGMHWVRQAPGKGLEWVAVIWDDGSYKYYGDSVKGRFTISRDNSKNTLYLQMNSLRAEDTAVYYCARDGITMVRGVMKDYFDYWGQGTLVTVSS VL: AIQLTQSPSSLSASVGDRVTITCRASQDISSALVWYQQKPGKAPKLLIYDASSLESGVPSRFSGSESGTDFTLTISSLQPEDFATYYCQQFNSYPLTFGGGTKVEIK VH2: QVQLVQSGAEVKKPGASVKVSCETSGYTFTSYGISWVRQAPGHGLEWMGWISAYNGYTNYAQKLQGRVTMTTDTSTSTAYMELRSLRSDDTAVYYCARDLRGTNYFDYWGQGTLVTVSS VL2: DIQMTQSPSSVSASVGDRVTITCRASQGISNWLAWFQHKPGKAPKLLIYAASSLLSGVPSRFSGSGSGTDFTLTISSLQPEDFATYYCQQANSFPITFGQGTRLEIK | – | – | – | – | – | stronger ADCC effect than the wild-type antibody containing fucose | 74.5
